We go through six molecules from patent US20250115663A1 (CELLDEX THERAPEUTICS, published 2025).

Changes are numbered by the printed parent chain.

Assay [1] concerns the target T1, soluble human CD40-MsIgG2a (human, UniProt P25942).
T1 construct: soluble, fused to mouse IgG2a; also called recombinant human CD40-msG2a chimeric protein; CD40-MsIgG2a (Celldex, 60 kD by SDS-PAGE)
Put plainly: BLI (Octet QKe), antibody captured on anti-human Fc (AHC) biosensors, analyte soluble human CD40-MsIgG2a 3.13 to 0.098 nM, 25 C, 1:1 fit. As for the experimental part:
(§1) Purified antibodies from Example 1 were captured on Anti-Human Fc Capture (AHC) biosensors (Fortebio Product No. 18-5060). Each antibody was prepared in dilution buffer (10mMPO4+150 mM NaCl+1 mg/mL BSA+0.5% Tween 20, pH 7.2) to 0.5 μg/mL and loaded on freshly hydrated AHC biosensors for 35-50 sec at 25° C. and 1000 rpm plate shake speed to achieve a target response of 0.2 nm. Low levels of ligand were captured to limit any effects of mass transport of analyte on kinetic parameters. For one assay, eight biosensors were loaded with the same antibody.
(§2) Binding was determined by exposing six of the antibody loaded biosensors to analyte: soluble human CD40-MsIgG2a (Celldex, 60 kD by SDS-PAGE). Affinity measurements were determined using 2-fold serial dilutions of analyte ranging from 3.13 to 0.098 nM in dilution buffer at 25° C. and 1000 rpm plate shake speed. Association of the antibody loaded biosensors in analyte wells was carried out for 1200 seconds, the biosensors were then moved to dilution buffer wells for 2.5 hrs (9000 sec) for dissociation measurements.
(§3) Fortebio's Data Analysis Software version 8.2.0.7 (Pall ForteBio, Menlo Park, CA) was used in each case to derive kinetic parameters from the concentration series of analyte in dilution buffer binding to captured antibody. The association and dissociation curves were fitted to a 1:1 binding model using the data analysis software according to the manufacturer's guidelines.
In general terms: Biolayer interferometry detects binding as a change in optical thickness at a sensor tip.

The target of assay [2] is T1, soluble human CD40-MsIgG2a. Put plainly: BLI (Octet QKe), antibody captured on anti-human Fc (AHC) biosensors, analyte soluble human CD40-MsIgG2a 3.13 to 0.098 nM, 25 C, 1:1 fit; column head kdis(1/s). The procedure: as §1, §2, §3
Assay [3] deals with T2, recombinant human CD40-Fc (human, UniProt P25942 21-193).
T2 construct: also called soluble recombinant human CD40/Fc chimera from R&D Systems; not shown: The antibody Fc domain of the R&D Systems chimera and any linker to it
T2 sequence (P25942 21-193 limits assumed, form in doubt): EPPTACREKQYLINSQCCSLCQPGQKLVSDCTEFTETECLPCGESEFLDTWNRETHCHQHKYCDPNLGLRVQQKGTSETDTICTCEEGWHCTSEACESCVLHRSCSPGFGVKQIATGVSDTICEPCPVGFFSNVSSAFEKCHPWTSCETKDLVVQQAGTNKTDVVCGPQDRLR
Put plainly: ELISA on coated recombinant human CD40-Fc, detection anti-human IgG F(ab')2-HRP, OD 450-650. The procedure:
Microtiter plates were coated with recombinant human CD40-Fc in PBS, and then blocked with 5% bovine serum albumin in PBS. […] The plates were washed with PBS/Tween and then incubated with a goat-anti-human IgG F(ab′)2-specific polyclonal reagent conjugated to horseradish peroxidase at 37° C. After washing, the plates were developed with HRP substrate, and analyzed at OD 450-650 using a microtiter plate reader.
(In general: In an ELISA, binding on a coated surface is turned into a signal by an enzyme label.)

For assay [4], the target named is T2, recombinant human CD40-Fc. Put plainly: ELISA on coated recombinant human CD40-Fc, detection anti-human IgG F(ab')2-HRP, OD 450-650 (the y axis is labelled 'Median Fluorescence'). As for the experimental part: Microtiter plates were coated with recombinant human CD40-Fc in PBS, and then blocked with 5% bovine serum albumin in PBS. Protein A purified human mAbs from Example 1 and an isotype control were added at various concentrations and incubated at 37° C. The plates were washed with PBS/Tween and then incubated with a goat-anti-human IgG F(ab′)2-specific polyclonal reagent conjugated to horseradish peroxidase at 37° C. After washing, the plates were developed with HRP substrate, and analyzed at OD 450-650 using a microtiter plate reader.

T1 sequence (P25942 21-193 limits assumed): as the sequence (P25942 21-193 limits assumed, form in doubt) above

B1: anti-CD40 human monoclonal antibody 3B6 (antibody, human IgG2, V domains shown)
VH: EVQLLESGGGLVQPGGSLRLSCAASGFTFSSYAMSWVRQAPGKGLEWVSGITGTGGSTYYADSVKGRFTISRDNSKNTLYVQMNSLRAEDTAVYYCAKRAGGSFYYYYGMDVWGQGTTVTVSS
VL: DIVMTQSPLSLPVTPGEPASISCRSSQSLLHSTGYNYLDWYLQKPGQSPQLLIYLGSNRASGVPDRFNGSGSGTDFTLKISRVEAEDFGVYYCMQALQTPWTFGHGTKVEIK
notes: Human IgG2
In general, Kd refers to the equilibrium constant for the complex coming apart. Read a low Kd as tighter binding. In general, kon refers to the rate constant with which the complex forms. A high value points to fast association. For orientation: koff means the rate constant with which the complex falls apart. High values mean fast dissociation, low ones slow dissociation. In assay [1], B1 had a Kd of 0.0079 nM and a kon of 782000 M⁻¹ s⁻¹. Further, the koff in assay [2] came to 6.14e-06 s⁻¹.

B2: anti-CD40 human monoclonal antibody 6H6 (antibody, human IgG2, V domains shown)
VH: QVQLVESGGGVVQPGRSLRFSCAASGFTLSSYGMHWVRQAPGKGLEWVAVIWDDGSNKYYADSVKGRFTISRDNSKNTLYLQMNSLRAEDTAVYYCARAGGSGRYYNYFDYWGQGTLVTVSS
VL: EIVMTQSPATLSVSPGERATLSCRASQSVRSNLAWYQQKPGQAPRLLIYGASTRATGIPARFSGSGSGTDFTLTISSLQSEDFAVYYCQQHNNWLTFGGGTKVEIK
notes: Human IgG2
For B2, in assay [1], the dissociation constant Kd is 0.0028 nM and the kon stood at 905000 M⁻¹ s⁻¹. For the same molecule, in assay [2], the koff was 2.49e-06 s⁻¹.

B3: F(ab')2 fragment of antibody 3G5 (other)
VH: B2 VH with R16K, F20L, L29F, Y32N, M34I, D53S, Y59F, G100S, R104S, Y108F
VL: B2 VL with D70E, S76N, N93K, L95I, G99Q, K102R, V103L
notes: F(ab')2 version of the IgG2 antibody, lacking the Fc domain; also called 3G5 F(ab')2
By EC50 (read off the curve) is commonly meant the concentration needed to bring the measured effect to its halfway point. In the case of B3, the “EC50 (read off the curve)” value in assay [3] is approximately 0.3 nM.

B4: anti-CD40 human monoclonal antibody 1B4 (antibody, human IgG2, V domains shown)
VH: EVQLLESGGGLVQPGGSLRLSCAASGFTFSSYAMTWVRQVPGKGLEWVSGITGSGANTFYTDSVKGRFTISRDNSNNSLYLQMNSLRADDTAVYYCAKRNGGSYYYYYGMDVWGQGTTVTVSS
VL: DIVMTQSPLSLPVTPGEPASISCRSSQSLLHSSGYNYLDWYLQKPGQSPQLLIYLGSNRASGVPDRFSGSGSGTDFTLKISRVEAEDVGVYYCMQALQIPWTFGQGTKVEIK
notes: Human IgG2
In assay [1], B4 showed a Kd of 0.0105 nM and a kon of 832000 M⁻¹ s⁻¹. Further, the koff in assay [2] is 8.76e-06 s⁻¹.

B5: anti-CD40 human monoclonal antibody 1B5-NK (antibody, human IgG2, V domains shown)
VH: QVQLVESGGGVVQPGRSLRLSCAASGFTFSSFGMHWVRQAPGKGLEWVTLIWFDGSSKYYADSVKGRFTISRDNSKNTLYLQMNSLRAEDTAVYYCVRGFAAVAGWYFDFWGRGTLVTVSS
VL: DIQMTQSPSSLSASVGDRVTITCRASQGVRKYLAWYQQKPGKVPKLLIYAASTLQSGVPSRFSGSGSGTDFTLTISSLQPEDVATYYCQKYFSAPYTFGQGTKLEIK
notes: Human IgG2
In the case of B5, the “EC50 (read off the curve)” value in assay [4] was approximately 0.09 µg/mL.

B6: F(ab')2 fragment of antibody 3C3 (other)
VH: QVQLVESGGGVVQPGRSLRLSCAGSGFIFSRYGMYWVRQAPGKGLEWVAVIWYDGSYKYYADSVKGRFTISRDNSKNTLYLQMNSLRAEDTAVYYCARESPWYYFDYWGQGTLVTVSS
VL: B5 VL with V29I, R30S, K31N, F92K, Y96F, Q100P, L104V, E105D
notes: F(ab')2 version of the IgG2 antibody, lacking the Fc domain; also called 3C3 F(ab')2
B6: the “EC50 (read off the curve)” value in assay [3] was approximately 0.4 nM.
